Earlier results, collected in PMC9528458.

Biological target: Axin DAX (Homo sapiens) (UniProt O15169)
Sequence (O15169 780-862): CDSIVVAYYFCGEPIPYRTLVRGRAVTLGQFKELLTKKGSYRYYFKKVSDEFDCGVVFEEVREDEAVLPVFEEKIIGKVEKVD

Chain of Dishevelled DIX (O14641 8-96): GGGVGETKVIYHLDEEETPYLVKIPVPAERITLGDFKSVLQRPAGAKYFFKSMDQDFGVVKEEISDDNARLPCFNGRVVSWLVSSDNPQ

Kd: 15 µM
Substance: Dishevelled DIX (from UniProt O14641)
